Common to all, as to experiment: cell-based or functional assay
The target of one test is CD26 on H9 T cells (UniProt P27487 1-766, limits assumed).
The target in test [1] is T1, T cell receptor of the PLP 139-151 specific T cell clone 4E3.B11.D9.H10.H6.
The target of test [2] is T cell receptor of the PLP 139-151 specific T cell clone 2E5.G10.G5.E5.
Test [3] addresses T cell receptor of the PLP 139-151 specific T cell clone 7A5.F10.G11.
Test [4] deals with T cell receptor of the PLP 139-151 specific T cell clone SPL.C1.H2.F2.
For test [5], the target named is T2, T cell receptor of the PLP 139-151 specific T cell clone 5B8.G8.E6.H12.
Test [6] deals with T1, T cell receptor of the PLP 139-151 …. The source holds these as a separate data set.
Test [7] addresses T2, T cell receptor of the PLP 139-151 …. The source holds these as a separate data set.

Numbered stars: 1 amine (or outer) side, 2 acyl side, 3 side chain; on linkers, the order of the positions; unused ones are H or OH. Square brackets hold non-standard residues; d marks the D form. Ends that are not written are not given here. * marks the point of attachment. εLys = N[C@@H](CCCCN[*:1])C(=O)[*:2]; Adipoyl = O=C(CCCCC(=O)[*:2])[*:1]; boroPro = OB(O)[C@@H]1CCCN1* Bounds are passed on as bounds.

Sequence of CD26 on H9 T cells (P27487 whole entry): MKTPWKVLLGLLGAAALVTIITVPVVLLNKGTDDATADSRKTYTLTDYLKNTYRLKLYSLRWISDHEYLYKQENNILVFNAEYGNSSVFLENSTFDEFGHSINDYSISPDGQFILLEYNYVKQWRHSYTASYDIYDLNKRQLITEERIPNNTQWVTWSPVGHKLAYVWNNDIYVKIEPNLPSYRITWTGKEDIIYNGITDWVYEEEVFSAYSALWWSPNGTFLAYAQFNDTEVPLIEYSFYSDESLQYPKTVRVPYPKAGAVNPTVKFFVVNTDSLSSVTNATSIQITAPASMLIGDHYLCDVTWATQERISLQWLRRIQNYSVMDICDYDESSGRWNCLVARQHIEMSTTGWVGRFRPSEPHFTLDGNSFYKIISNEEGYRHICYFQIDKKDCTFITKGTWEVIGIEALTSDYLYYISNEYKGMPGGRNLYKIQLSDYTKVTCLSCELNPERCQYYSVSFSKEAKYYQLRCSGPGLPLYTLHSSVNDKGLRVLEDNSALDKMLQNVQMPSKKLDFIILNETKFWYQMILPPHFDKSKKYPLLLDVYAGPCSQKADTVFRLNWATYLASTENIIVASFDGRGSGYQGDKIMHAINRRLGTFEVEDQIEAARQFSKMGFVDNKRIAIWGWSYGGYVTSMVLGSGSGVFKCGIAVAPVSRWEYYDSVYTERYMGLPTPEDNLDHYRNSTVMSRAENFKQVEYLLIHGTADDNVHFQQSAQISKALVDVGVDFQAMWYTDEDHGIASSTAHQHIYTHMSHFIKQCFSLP

B1: KbP2-Adipate (di(L-Lysine-L-boroProline)adipate) (peptide)
peptide: Lys(Adipoyl)-[boroPro]
modifications: also: dimer: two Lys-boroPro joined by adipoyl linker between lysine ε-amino groups
Regarding B1, the “augmentation of IL-2 production by anti-CD3 (OKT3) stimulated H9 cells” value in the test with CD26 on H9 T cells was no more than 4 fold.
As for HSLGKWLGHPDKFAAAAAA-{εLys-boroPro}, the “proliferation (thymidine uptake), antigen dose 0.1 µM” value was 3690 3H counts in test [1], 175 3H counts in test [2], 187 3H counts in test [3] and 681 3H counts in test [4]. For the same molecule, the “proliferation (thymidine uptake), antigen dose 1 µM” value in test [1] was 8580 3H counts; in test [2], 7740 3H counts; in test [3], 8200 3H counts; in test [4], 2530 3H counts; in test [5], 22000 3H counts. Also, the “proliferation (thymidine uptake), antigen dose 10 µM” value in test [1] was 15800 3H counts; in test [2], 26400 3H counts; in test [3] it was 35500 3H counts; in test [4] it was 17500 3H counts; in test [5], 53600 3H counts. Also, the “proliferation (thymidine uptake), antigen dose 100 µM” value in test [1] is 17600 3H counts; in test [2], 36700 3H counts; in test [3], 44000 3H counts; in test [4], 31600 3H counts; in test [5], 34700 3H counts. The “enhancement of the proliferative response against PLP 139-151” value was roughly 2000 fold in test [6] and roughly 200 fold in test [7].
For HSLGKWLGHPDKF [Myelin proteolipid protein peptide PLP 139-151 (HSLGKWLGHPDKF)], the “proliferation (thymidine uptake), antigen dose 0.1 µM” value in test [1] is 318 3H counts; in test [2] it was 101 3H counts; in test [3], 117 3H counts; in test [4], 423 3H counts; in test [5], 106 3H counts. Besides, the “proliferation (thymidine uptake), antigen dose 1 µM” value in test [1] is 125 3H counts; in test [2] it was 288 3H counts; in test [3], 222 3H counts; in test [4], 107 3H counts; in test [5], 349 3H counts. The “proliferation (thymidine uptake), antigen dose 10 µM” value in test [1] is 534 3H counts; in test [2], 70 3H counts; in test [3], 406 3H counts; in test [4] it was 400 3H counts; in test [5], 9180 3H counts. The “proliferation (thymidine uptake), antigen dose 100 µM” value in test [1] is 1930 3H counts; in test [2] it was 1510 3H counts; in test [3], 2320 3H counts; in test [4], 809 3H counts; in test [5], 41100 3H counts.
